Results: publication PMC3777900

Biological target: Mouse myosin 5a HMM (m5-HMM), heavy chain (mouse) (UniProt Q99104)
Experiment: photo-bleaching step counting by TIRF microscopy; single molecules bound on a cover glass surface after exchange with Alexa488-CaM at 5:1 (Alexa488-CaM: myosin); step-wise photo-bleaching counted

Sequence of UniProt Q99104 (Q99104 whole entry): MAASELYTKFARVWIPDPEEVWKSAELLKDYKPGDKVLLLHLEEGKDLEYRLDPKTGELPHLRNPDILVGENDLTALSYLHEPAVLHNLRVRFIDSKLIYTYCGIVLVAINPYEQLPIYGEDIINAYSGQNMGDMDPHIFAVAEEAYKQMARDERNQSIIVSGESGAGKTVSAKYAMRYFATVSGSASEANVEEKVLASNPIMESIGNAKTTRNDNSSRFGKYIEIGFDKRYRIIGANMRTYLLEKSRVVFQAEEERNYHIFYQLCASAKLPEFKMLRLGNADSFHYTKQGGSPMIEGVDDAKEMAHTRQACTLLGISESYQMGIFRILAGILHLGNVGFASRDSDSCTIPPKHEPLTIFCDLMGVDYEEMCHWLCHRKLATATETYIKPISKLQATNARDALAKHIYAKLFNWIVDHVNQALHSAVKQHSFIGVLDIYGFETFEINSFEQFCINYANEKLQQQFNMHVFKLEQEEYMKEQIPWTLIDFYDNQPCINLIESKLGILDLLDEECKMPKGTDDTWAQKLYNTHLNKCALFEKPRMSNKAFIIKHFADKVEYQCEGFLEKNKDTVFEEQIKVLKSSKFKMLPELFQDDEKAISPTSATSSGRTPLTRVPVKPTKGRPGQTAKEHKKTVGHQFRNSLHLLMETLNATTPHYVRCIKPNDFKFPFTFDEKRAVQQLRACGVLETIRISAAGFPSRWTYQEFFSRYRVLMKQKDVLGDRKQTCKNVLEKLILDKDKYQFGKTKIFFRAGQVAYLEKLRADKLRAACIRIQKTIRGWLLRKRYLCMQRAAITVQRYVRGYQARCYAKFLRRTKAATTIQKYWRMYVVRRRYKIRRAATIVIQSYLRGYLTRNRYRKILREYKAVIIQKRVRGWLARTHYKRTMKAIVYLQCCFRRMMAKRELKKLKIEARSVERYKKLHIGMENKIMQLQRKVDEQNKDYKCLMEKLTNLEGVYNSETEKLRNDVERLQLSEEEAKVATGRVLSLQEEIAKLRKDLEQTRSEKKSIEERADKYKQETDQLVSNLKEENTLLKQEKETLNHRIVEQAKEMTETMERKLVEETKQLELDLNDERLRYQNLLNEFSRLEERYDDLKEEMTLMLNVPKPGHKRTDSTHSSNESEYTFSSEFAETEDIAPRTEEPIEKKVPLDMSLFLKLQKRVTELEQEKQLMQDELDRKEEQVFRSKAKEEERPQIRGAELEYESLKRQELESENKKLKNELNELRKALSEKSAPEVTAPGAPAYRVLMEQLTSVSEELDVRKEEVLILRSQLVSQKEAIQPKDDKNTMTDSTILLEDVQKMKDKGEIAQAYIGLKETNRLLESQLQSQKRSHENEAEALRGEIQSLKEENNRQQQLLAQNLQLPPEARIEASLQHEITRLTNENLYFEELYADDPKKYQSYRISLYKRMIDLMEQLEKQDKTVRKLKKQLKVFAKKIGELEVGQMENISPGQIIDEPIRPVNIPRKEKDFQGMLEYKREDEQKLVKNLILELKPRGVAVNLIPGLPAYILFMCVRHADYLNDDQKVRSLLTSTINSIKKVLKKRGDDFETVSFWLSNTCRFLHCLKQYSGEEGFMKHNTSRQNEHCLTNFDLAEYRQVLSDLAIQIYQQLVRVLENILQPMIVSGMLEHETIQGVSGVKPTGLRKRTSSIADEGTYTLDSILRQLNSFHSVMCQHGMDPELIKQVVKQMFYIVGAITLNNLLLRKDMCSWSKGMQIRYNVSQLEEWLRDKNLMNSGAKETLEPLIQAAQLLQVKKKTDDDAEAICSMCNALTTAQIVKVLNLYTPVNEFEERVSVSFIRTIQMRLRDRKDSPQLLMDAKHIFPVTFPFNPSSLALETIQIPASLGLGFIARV

Row | Substance | stoichiometry N | Alexa488-CaM molecules exchanged into one myosin molecule
1 | Mouse myosin 5a HMM (m5-HMM), heavy chain (from UniProt Q99104 1-1853) (domain or fragment) | 2 | –
2 | Alexa Fluor 488-labeled bovine calmodulin (from UniProt P62157 1-149) (natural protein) | – | 2
